Assay [1] deals with T1, mature myostatin (recombinant, dimeric) (mouse polyprotein used for in-house …, UniProt O08689 268-376).
T1 construct: also called GDF-8; recombinant myostatin
T1 sequence: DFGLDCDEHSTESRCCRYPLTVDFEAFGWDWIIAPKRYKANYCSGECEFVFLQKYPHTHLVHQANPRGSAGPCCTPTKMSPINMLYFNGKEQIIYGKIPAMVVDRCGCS
Briefly: BIAcore T100, antibody captured on anti-mouse IgG (C1 chip), myostatin analyte, all curves Bivalent model. How it is done: The affinity of 10B3 mouse parental and 10B3C for recombinant myostatin was assessed by BIAcore™ (surface plasmon resonance) analysis. Analysis was carried out by the use of a capture surface: anti-mouse IgG was coupled to a C1 chip by primary amine coupling for 10B3 mouse parental; and a protein A surface was created on a C1 chip by primary amine coupling for 10B3 chimera.
After capture, recombinant myostatin was passed over the surface at 64 nM, 16 nM, 4 nM, 1 nM, 0.25 nM and 0.0625 nM, with a buffer injection (i.e. 0 nM) used for double referencing. There was a regeneration step between each analyte injection, after which the new antibody capture event occurred before the next injection of myostatin. The data was analysed using both the 1:1 model and the Bivalent model inherent to the T100 machines analysis software (see Table 6). Both capture surfaces could be regenerated using 100 mM phosphoric acid, the work was carried out using HBS-EP as the running buffer and using 25° C. as the analysis temperature.
Background: Surface plasmon resonance follows binding to a sensor surface in real time, without labels.

Assay [2] concerns the target T2, human myostatin pro-peptide dimer (human, UniProt O14793 25-266).
T2 sequence: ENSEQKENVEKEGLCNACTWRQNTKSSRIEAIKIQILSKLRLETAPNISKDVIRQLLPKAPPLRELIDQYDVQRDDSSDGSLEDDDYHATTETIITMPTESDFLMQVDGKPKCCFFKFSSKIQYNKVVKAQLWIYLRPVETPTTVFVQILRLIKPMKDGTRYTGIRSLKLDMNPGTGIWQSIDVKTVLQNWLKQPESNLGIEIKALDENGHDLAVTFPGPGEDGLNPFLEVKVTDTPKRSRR
The assay can be described thus: ELISA, plate-coated antigen. How it is done:
The myostatin antigens were coated onto wells of an EIA/RIA plate (Costar) at 100 ng/well at 4° C. overnight in PBS, prior to blocking (PBS, 3% BSA) for 30 minutes at room temperature. Plates were washed (PBS, 1% BSA and 0.1% Tween20), prior to the addition of a dilution series of 10B3 in wash buffer and incubation for 2 hours at room temperature. […] A final wash step preceded addition of TMB substrate and colorimetric change which was stopped with Sulphuric acid and plates read at 450 nm.

Assay [3] concerns the target T1, mature myostatin (recombinant, dimeric). The assay can be described thus: cell-based or functional assay.
The target in assay [4] is T3, artificial myostatin linear peptide 3 (cysteine pairing not given here).
T3 construct: also called Peptide No 3
T3 peptide: Biotin-SGSGDCDEHSTESRCCRY-NH2
Briefly: SRU BIND reader, peptides captured on streptavidin biosensor plate. As for the experimental part:
(§1) Work was carried out on an SRU BIND reader (SRU Biosystems). A streptavidin biosensor plate was washed, a baseline reading taken, and biotinylated peptides captured onto the streptavidin coated biosensor plate. The plate was washed again, and a new baseline reading taken, antibody was then added and binding monitored.

For assay [5], the target named is T4, artificial myostatin linear peptide 23 (SMILES …).
T4 construct: also called Peptide No 23
T4 peptide: Biotin-SGSGGECEFVFLQKYPHT-NH2
The assay is described as above. How it is done: as §1

In assay [6] the target is T5, artificial myostatin linear peptide 9 (SMILES …).
T5 construct: also called Peptide No 9
T5 peptide: Biotin-SGSGRYPLTVDFEAFGWD-NH2
The description is as above. As for the experimental part:
as §1

Assay [7] concerns the target T6, artificial myostatin linear peptide 49 (cysteine pairing not given here).
T6 construct: also called Peptide No 49
T6 peptide: Biotin-SGSGGKIPAMVVDRCGCS-OH
Described as above. As for the experimental part: as §1

For assay [8], the target named is T7, artificial myostatin linear peptide 5 (cysteine pairing not given here).
T7 construct: also called Peptide No 5
T7 peptide: Biotin-SGSGHSTESRCCRYPLTV-NH2
The assay is described as above. How it is done: as §1

Assay [9] deals with T8, artificial myostatin linear peptide 45 (SMILES …).
T8 construct: also called Peptide No 45
T8 peptide: Biotin-SGSGGKEQIIYGKIPAMV-NH2
Described as above. As for the experimental part: as §1

Assay [10] deals with T1, mature myostatin (recombinant, dimeric). Briefly: ELISA, plate-coated myostatin (R&D Systems), mean EC50. As for the experimental part: 10B3 and 10B3 chimera (10B3C) bound myostatin (R&D Systems, 788-G8-010/CF) in a sandwich ELISA. Plates were coated with myostatin at 10 ng/well and blocked with Block solution (PBS, 0.1% TWEEN and 1% BSA). Following washing (PBS, 0.1% TWEEN), antibody was incubated at 37° C. for 2 hours over a dilution series and plates washed again prior to incubation at 37° C. for 1 hour with anti-mouse HRP or anti-human HRP (Dako, P0161 & Sigma, A-8400, respectively). Plates were again washed and OPD substrate (Sigma, P9187) added until colourometric reaction occurred and the reaction stopped by the addition of H₂SO₄.

For assay [11] the target is unchanged. Briefly: ActRIIb receptor binding assay (Example 2.5), mean IC50. As for the experimental part:
Recombinant soluble ActRIIb (R&D Systems 339-RBB) was coated in wells of an ELISA plate at 1 μg/ml in carbonate buffer overnight at 4° C. Plates were blocked (see Block solution above at 2.3) and washed following standard ELISA protocols. In parallel, 2 nM biotinylated myostatin (in-house, as described in 1.1, biotinylated material) was pre-incubated with an antibody dilution series consisting of 10B3, 10B3C, and a negative control (IgG1 isotype control) for 2 hours at 37° C. The biotinylated myostatin:antibody reactions were then added to the ActRIIb coated plate for 1 hour at 37° C. Standard wash procedures were followed prior to addition of 1:1000 diluted streptavidin-HRP conjugate (Dako P0397) and a further 37° C. incubation for 1 hour. Plates were again washed and assayed at absorbance 490 nm following OPD substrate (Sigma) and acid stop solution treatment Inhibition curves and IC50 values for the inhibition of myostatin activity are shown in FIG. 5 and Table 8 respectively.
H2L2 C91S_G55S F100G_Y, the developability enhanced molecule with the highest apparent potency in the A204 assay was Fc-disabled (by making the following substitutions, using EU numbering system: Leu 235 Ala; and Gly 237 Ala) as exemplified in SEQ ID NO: 99.

Assay [12] has the same target. The assay can be described thus: cell-based or functional assay. This is another data set of the same source.

* marks the point of attachment. Biotin = O=C1N[C@H]2[C@H](CS[C@H]2CCCCC(=O)*)N1

We go through 1 molecule from patent US20110256132A1 (published 2011).

As usually defined, the EC50 is the concentration at which the effect is half-maximal. The term IC50 denotes the concentration needed to halve the response being measured.

B1: mouse monoclonal antibody 10B3 (antibody, V domains shown)
VH: EVQLQQSGPELVKPGASVKISCKASGYSFTGYFMHWVKQSHGNILDWIGNIYPYNGVSNYNQRFKAKATLTVDKSSSTAYMELRSLTSEDSAVYYCARRYYYGTGPADWYFDVWGTGTTVTVSS
VL: DIKMTQSPSSMYASLRERVTITCKASQDINSYLSWFQQKPGKSPKTLIYRANRLVDGVPSRFSGSGSGQDYSLTISSLEYEDMGIYYCLQCDEFPLTFGAGTKLELK
notes: Mouse IgG2a/kappa from hybridoma; also called 10B3 mouse parental; 10B3 parental
In the case of B1, the Kd in assay [1] came to 5.9 nM. Moreover, the binding result in [2], in [4], in assay [5], in assay [6], in [7] and in assay [8] was “no binding” each time. In addition, the binding result in [9] is “no binding”. Moreover, the “Mean IC50, A204 in vitro activity assay” value in assay [3] was determined as 8.5 nM. Further, in assay [10], the EC50 was found to be 0.069 µg/mL. The IC50 in assay [11] stood at 0.161 nM. Besides, the “Mean IC50, myostatin responsive reporter gene assay (A204 cells, luciferase)” value in assay [12] was determined as 10 nM.
